How the values were obtained:
[1] = biological target: T1, UV-DDB (DDB1-DDB2);XPC-RAD23B (Homo sapiens;Homo sapiens, UniProt Q16531;Q92466;Q01831;P54727 1-1140;1-427;1-940;1-409, |); experiment: single-molecule DNA curtain; conditions: 0.2 nM UV-DDB, 0.4 nM XPC-RAD23B, 3-fold more at CPD sites than random sites, three CPDs around 33.5 kbp (33513-33630), EMSA: 50 mM Tris-HCl pH 7.5, 100 mM NaCl, 0.1 mg/ml BSA, 1 mM DTT, 23°C, 45 min, DNA curtains: 10 mM Tris-HCl pH 8.0, 1 mM EDTA, 0.16% BSA, 0-100 mM …
[2] = biological target: T1, UV-DDB (DDB1-DDB2);XPC-RAD23B; experiment: EMSA; 2 nM XPC-RAD23B, UV-DDB titrated, 10 nM DNA; EMSA: 50 mM Tris-HCl pH 7.5, 100 mM NaCl, 0.1 mg/ml BSA, 1 mM DTT, 23°C, 45 min; DNA curtains: 10 mM Tris-HCl pH 8.0, 1 mM EDTA, 0.16% BSA, 1 mM DTT, 0-100 mM NaCl, 23°C; conditions: protein: recombinant;recombinant; tags: 3xHA at N-terminus of DDB1 (1xFLAG removed by PreScission);3xFLAG at N-terminus of XPC; copies: 1;1;1;1; label: 5'-FAM on strand 2; blunt; T21 of strand 1 faces T of strand 2 (T-T mismatch at the CPD)
[3] = biological target: T1, UV-DDB (DDB1-DDB2);XPC-RAD23B; experiment: EMSA; 15 nM XPC-RAD23B, UV-DDB titrated, 10 nM DNA; co-bound band confirmed by native western; EMSA: 50 mM Tris-HCl pH 7.5, 100 mM NaCl, 0.1 mg/ml BSA, 1 mM DTT, 23°C, 45 min; DNA curtains: 10 mM Tris-HCl pH 8.0, 1 mM EDTA, 0.16% BSA, 1 mM DTT, 0-100 mM NaCl, 23°C; conditions: protein: recombinant;recombinant; tags: 3xHA at N-terminus of DDB1 (1xFLAG removed by PreScission);3xFLAG at N-terminus of XPC; copies: 1;1;1;1; label: 5'-FAM on strand 2; blunt; T21 of strand 1 faces T of strand 2 (T-T mismatch at the CPD)
XPC-RAD23B = XPC-RAD23B (Homo sapiens, UniProt Q01831;P54727 1-940;1-409); experiment: EMSA; 4 nM DNA, no competitor; EMSA: 50 mM Tris-HCl pH 7.5, 100 mM NaCl, 0.1 mg/ml BSA, 1 mM DTT, 23°C, 45 min; DNA curtains: 10 mM Tris-HCl pH 8.0, 1 mM EDTA, 0.16% BSA, 1 mM DTT, 0-100 mM NaCl, 23°C; conditions: protein: recombinant, tags: 3xFLAG at N-terminus of XPC, copies: 1;1, label: 5'-FAM on strand 2, blunt
UV-DDB (DDB1-DDB2) = UV-DDB (DDB1-DDB2) (Homo sapiens, UniProt Q16531;Q92466 1-1140;1-427); experiment: as above; conditions: protein: recombinant, tags: 3xHA at N-terminus of DDB1 (1xFLAG removed by PreScission), copies: 1;1, label: 5'-FAM on strand 2, blunt
[4] = biological target: T1, UV-DDB (DDB1-DDB2);XPC-RAD23B; experiment: EMSA; 2 nM XPC-RAD23B increases UV-DDB binding; EMSA: 50 mM Tris-HCl pH 7.5, 100 mM NaCl, 0.1 mg/ml BSA, 1 mM DTT, 23°C, 45 min; DNA curtains: 10 mM Tris-HCl pH 8.0, 1 mM EDTA, 0.16% BSA, 1 mM DTT, 0-100 mM NaCl, 23°C; conditions: protein: recombinant;recombinant; tags: 3xHA at N-terminus of DDB1 (1xFLAG removed by PreScission);3xFLAG at N-terminus of XPC; copies: 1;1;1;1; label: 5'-FAM on strand 2; blunt
[5] = biological target: UV-DDB (heterodimer of DDB1 and DDB2) (human, UniProt Q16531 1-1140; Q92466 1-427); experiment: cell-based or functional assay
[6] = T21 of strand 1 faces T of strand 2 (T-T mismatch at the CPD)

T1 sequence (Q16531 whole entry, chain 1 of 2): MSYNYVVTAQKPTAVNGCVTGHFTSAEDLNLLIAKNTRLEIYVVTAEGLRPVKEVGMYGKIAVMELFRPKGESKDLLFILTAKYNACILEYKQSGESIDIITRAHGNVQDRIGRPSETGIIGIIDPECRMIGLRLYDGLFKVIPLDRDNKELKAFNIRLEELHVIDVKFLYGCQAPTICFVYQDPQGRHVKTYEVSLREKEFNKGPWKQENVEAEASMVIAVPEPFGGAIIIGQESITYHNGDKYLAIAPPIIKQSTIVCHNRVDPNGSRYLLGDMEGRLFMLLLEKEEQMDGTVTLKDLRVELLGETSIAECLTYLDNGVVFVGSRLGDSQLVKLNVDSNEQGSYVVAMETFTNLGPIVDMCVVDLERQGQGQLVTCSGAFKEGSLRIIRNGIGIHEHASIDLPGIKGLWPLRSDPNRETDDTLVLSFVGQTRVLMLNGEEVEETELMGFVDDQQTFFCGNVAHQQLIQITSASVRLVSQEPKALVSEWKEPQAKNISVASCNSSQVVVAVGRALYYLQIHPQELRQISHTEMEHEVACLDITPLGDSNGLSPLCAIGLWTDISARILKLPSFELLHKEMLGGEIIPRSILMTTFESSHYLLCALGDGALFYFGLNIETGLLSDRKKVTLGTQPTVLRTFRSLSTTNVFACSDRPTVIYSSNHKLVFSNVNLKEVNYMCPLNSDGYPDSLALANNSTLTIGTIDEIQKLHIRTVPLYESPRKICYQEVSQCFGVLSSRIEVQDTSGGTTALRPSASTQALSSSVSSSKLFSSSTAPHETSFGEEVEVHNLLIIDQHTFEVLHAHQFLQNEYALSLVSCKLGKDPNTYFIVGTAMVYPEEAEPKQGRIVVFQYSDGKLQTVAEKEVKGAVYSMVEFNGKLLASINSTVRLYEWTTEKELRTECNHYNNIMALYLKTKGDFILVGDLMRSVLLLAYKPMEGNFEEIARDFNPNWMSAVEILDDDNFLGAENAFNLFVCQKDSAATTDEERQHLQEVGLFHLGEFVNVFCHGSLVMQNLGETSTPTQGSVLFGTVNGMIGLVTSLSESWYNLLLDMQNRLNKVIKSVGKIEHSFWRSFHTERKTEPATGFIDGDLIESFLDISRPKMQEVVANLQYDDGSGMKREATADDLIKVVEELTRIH
T1 sequence (Q92466 whole entry, chain 2 of 2): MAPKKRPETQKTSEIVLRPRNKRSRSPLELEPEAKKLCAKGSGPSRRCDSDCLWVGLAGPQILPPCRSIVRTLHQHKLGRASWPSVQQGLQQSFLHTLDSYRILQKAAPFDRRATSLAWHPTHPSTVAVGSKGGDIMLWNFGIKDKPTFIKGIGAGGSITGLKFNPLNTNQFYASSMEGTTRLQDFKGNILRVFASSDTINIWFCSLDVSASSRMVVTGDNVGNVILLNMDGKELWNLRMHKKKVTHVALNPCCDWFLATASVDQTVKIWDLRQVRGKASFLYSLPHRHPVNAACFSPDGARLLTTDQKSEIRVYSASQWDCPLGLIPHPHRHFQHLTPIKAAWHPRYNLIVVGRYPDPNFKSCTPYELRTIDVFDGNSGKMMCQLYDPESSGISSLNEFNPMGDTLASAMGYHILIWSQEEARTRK
Sequence of UV-DDB (DDB1-DDB2) (Q16531 whole entry, chain 1 of 2): as the sequence (Q16531 whole entry, chain 1 of 2) above
Sequence of UV-DDB (DDB1-DDB2) (Q92466 whole entry, chain 2 of 2): as the sequence (Q92466 whole entry, chain 2 of 2) above
Sequence of UV-DDB (heterodimer of DDB1 and DDB2) (Q16531 whole entry, chain 1 of 2): as the sequence (Q16531 whole entry, chain 1 of 2) above
Sequence of UV-DDB (heterodimer of DDB1 and DDB2) (Q92466 whole entry, chain 2 of 2): as the sequence (Q92466 whole entry, chain 2 of 2) above

3x CPD λ-DNA (λ-I3)
binding signal (fold bound UV-DDB vs no XPC-RAD23B) [1]: 5.5

B1: CPD-containing 39 bp DNA (λ-I3_CPD / λ-I3_comp_FAM) (dsDNA)
DNA 1: TGCATGCGGCCGCTCTTCCCTTGGTGCGATCGCTCTTCG
DNA 2: CGAAGAGCGATCGCACCATGGGAAGAGCGGCCGCATGCA
modifications: cyclobutane pyrimidine dimer T21^T22 in strand 1; 5'-phosphate on strand 1
binding signal [2]: 2.5 fold UV-DDB affinity vs no XPC-RAD23B
binding signal [3]: ~4 fold UV-DDB binding vs no XPC-RAD23B
Kd (XPC-RAD23B; [6]): ~7 nM
Kd (UV-DDB (DDB1-DDB2); [6]): ~5 nM

B2: undamaged 39 bp DNA (λ-I3_Dup / λ-I3_comp_FAM) (dsDNA)
DNA 1: TGCATGCGGCCGCTCTTCCCATGGTGCGATCGCTCTTCG
DNA 2: CGAAGAGCGATCGCACCATGGGAAGAGCGGCCGCATGCA
modifications: 5'-phosphate on strand 1
binding result [4]: binds
Kd (XPC-RAD23B): ~9 nM
Kd (UV-DDB (DDB1-DDB2)): ~26 nM

B3: XPC-RAD23B (complex, human)
chain 1: MARKRAAGGEPRGRELRSQKSKAKSKARREEEEEDAFEDEKPPKKSLLSKVSQGKRKRGCSHPGGSADGPAKKKVAKVTVKSENLKVIKDEALSDGDDLRDFPSDLKKAHHLKRGATMNEDSNEEEEESENDWEEVEELSEPVLGDVRESTAFSRSLLPVKPVEIEIETPEQAKTRERSEKIKLEFETYLRRAMKRFNKGVHEDTHKVHLLCLLANGFYRNNICSQPDLHAIGLSIIPARFTRVLPRDVDTYYLSNLVKWFIGTFTVNAELSASEQDNLQTTLERRFAIYSARDDEELVHIFLLILRALQLLTRLVLSLQPIPLKSATAKGKKPSKERLTADPGGSSETSSQVLENHTKPKTSKGTKQEETFAKGTCRPSAKGKRNKGGRKKRSKPSSSEEDEGPGDKQEKATQRRPHGRERRVASRVSYKEESGSDEAGSGSDFELSSGEASDPSDEDSEPGPPKQRKAPAPQRTKAGSKSASRTHRGSHRKDPSLPAASSSSSSSKRGKKMCSDGEKAEKRSIAGIDQWLEVFCEQEEKWVCVDCVHGVVGQPLTCYKYATKPMTYVVGIDSDGWVRDVTQRYDPVWMTVTRKCRVDAEWWAETLRPYQSPFMDREKKEDLEFQAKHMDQPLPTAIGLYKNHPLYALKRHLLKYEAIYPETAAILGYCRGEAVYSRDCVHTLHSRDTWLKKARVVRLGEVPYKMVKGFSNRARKARLAEPQLREENDLGLFGYWQTEEYQPPVAVDGKVPRNEFGNVYLFLPSMMPIGCVQLNLPNLHRVARKLDIDCVQAITGFDFHGGYSHPVTDGYIVCEEFKDVLLTAWENEQAVIERKEKEKKEKRALGNWKLLAKGLLIRERLKRRYGPKSEAAAPHTDAGGGLSSDEEEGTSSQAEAARILAASWPQNREDEEKQKLKGGPKKTKREKKAAASHLFPFEQL
chain 2: MQVTLKTLQQQTFKIDIDPEETVKALKEKIESEKGKDAFPVAGQKLIYAGKILNDDTALKEYKIDEKNFVVVMVTKPKAVSTPAPATTQQSAPASTTAVTSSTTTTVAQAPTPVPALAPTSTPASITPASATASSEPAPASAAKQEKPAEKPAETPVATSPTATDSTSGDSSRSNLFEDATSALVTGQSYENMVTEIMSMGYEREQVIAALRASFNNPDRAVEYLLMGIPGDRESQAVVDPPQAASTGAPQSSAVAAAAATTTATTTTTSSGGHPLEFLRNQPQFQQMRQIIQQNPSLLPALLQQIGRENPQLLQQISQHQEHFIQMLNEPVQEAGGQGGGGGGGSGGIAEAGSGHMNYIQVTPQEKEAIERLKALGFPEGLVIQAYFACEKNENLAANFLLQQNFDED
EMSA: binding of UV-DDB (0-25 nM) to DNA with 15 nM XPC-RAD23B against none [5]: ~4 fold

Source: PMC12203913, “XPC-RAD23B enhances UV-DDB binding to DNA to facilitate lesion search in nucleotide excision repair” (Nucleic Acids Research, 2025)
